According to patent publication US20250163167A1 (SYNTHEKINE, published 2025):
Each block holds one binder with its values, some of them ahead of it.

Legend:
[1] = molecular target: T1, hIL10Rb-his (Sino Biological, Catalog#10945) (human, UniProt Q08334 20-220); assay: SPR; ratio of experimental to calculated Rmax
T1 construct: Bought; also called Sino Biological cat#10945-H08H; not shown: C-terminal poly-His tag
T1 sequence: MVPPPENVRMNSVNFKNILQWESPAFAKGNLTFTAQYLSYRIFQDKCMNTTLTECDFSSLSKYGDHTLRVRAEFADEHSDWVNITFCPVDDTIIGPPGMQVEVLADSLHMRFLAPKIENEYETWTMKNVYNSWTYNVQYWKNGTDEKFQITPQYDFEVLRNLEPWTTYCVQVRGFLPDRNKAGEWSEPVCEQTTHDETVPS

[2] = molecular target: T1, hIL10Rb-his (Sino Biological, …); assay: SPR Biacore T200; mono-Fc VHH captured on Protein A chip, hIL10Rb-his analyte; 1:1 Langmuir fit
[3] = molecular target: T1, hIL10Rb-his (Sino Biological, …); assay: SPR Biacore T200; biotinylated dual VHH captured on CAP biotin chip, hIL10Rb-his analyte; 1:1 Langmuir fit
[4] = molecular target: T1, hIL10Rb-his (Sino Biological, …); assay: SPR; ratio of experimental to calculated Rmax; remark: listed apart in the source
[5] = molecular target: T2, hIL10Ra-his (Sino Biological, Catalog#10419) (human, UniProt Q13651 22-235); assay: SPR Biacore T200; biotinylated dual VHH captured on CAP biotin chip, hIL10Ra-his analyte; 1:1 Langmuir fit
T2 construct: Bought; also called Sino Biological cat#10419-H08H; not shown: C-terminal poly-His tag
T2 sequence: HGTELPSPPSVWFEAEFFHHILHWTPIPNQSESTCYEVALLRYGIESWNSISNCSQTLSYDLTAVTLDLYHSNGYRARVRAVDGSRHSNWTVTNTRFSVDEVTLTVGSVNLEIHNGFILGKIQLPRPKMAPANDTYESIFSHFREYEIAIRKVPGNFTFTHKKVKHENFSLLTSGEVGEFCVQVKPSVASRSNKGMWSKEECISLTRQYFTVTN

B2: hIL-10Rb_VHH3 Mono-Fc (Fc fusion)
chain: QVQLQESGGGSVQAGGSLRLSCAASRYTYNSYCMGWFRQAPGKEREGVATIDSDGMTRYADSVKGRFTISKDNAKNTLYLQMNSLKPEDTAMYYCAADADCTIAAMTTNPLGQGTQVTVSS
notes: Mono-Fc VHH captured on Protein A; not shown: mono-Fc part
Surface Activity [1]: 52%
Kd [2]: 231 nM
koff [2]: 0.0214 s⁻¹
kon [2]: 92900 M⁻¹ s⁻¹

B3: hIL-10Rb_VHH15 Mono-Fc (Fc fusion)
chain: QVQLQESGGGSVQAGGSLRLSCTVSRYTASVNYMGWFRQAPGKEREGVATIFTGAGTTYYANSVKGRFTISRDNAKNTAYLQMNSLKPEDTAIYYCAVDFRGGLLYRPAYEYTYRGQGTQVTVSS
notes: as for B2
Surface Activity [1]: 18%
Kd [2]: 121 nM
koff [2]: 0.00866 s⁻¹
kon [2]: 71800 M⁻¹ s⁻¹

B6: hIL10Rb_VHH12-hIL10Ra_VHH8 biotin (bispecific antibody)
chain: QVQLQESGGGSVQAGGSLRLSCAASGYTYSSYCMGWFRQAPGKEREGVAHIDSDGSTSYADSVKGRFTISKDNAKNTLYLQMNSLKPEDTAMYYCAADPIPGPGYCDGGPNKYWGQGTQVTVSSGGGSQVQLQESGGGSVQAGGSLRLSCAASGYTYSMYCMGWFRQAPGKEREGVAQINSDGSTSYADSVKGRFTISKDNAKNTLYLQMNSLKPEDTAMYYCAADSRVYGGSWYERLCGPYTYEYNYWGQGTQVTVSS
modifications: conjugated to biotin (site not stated)
Kd [3]: 1.5 nM
koff [3]: 0.00068 s⁻¹
kon [3]: 440000 M⁻¹ s⁻¹
Activity [4]: 42%
Kd [5]: 0.35 nM
koff [5]: 6.5e-05 s⁻¹
kon [5]: 180000 M⁻¹ s⁻¹

B7: hIL10Ra_VHH12-hIL10Rb_VHH27 biotin (bispecific antibody)
chain: QVQLQESGGGSVQAGGSLRLSCTVSGYTYSSNCMGWFRQAPGKEREGVATIYTGGGNTYYADSVKGRFTISQDNAKNTVYLQMNNLKPEDTAMYYCAAEPLSRVYGGSCPTPTFDYWGQGTQVTVSSGGGSQVQLQESGGGSVQTGGSLRLSCAASGYTYLRGCMGWFRQAPGKEREGVAVMDVVGDRRSYIDSVKGRFTISRDNAANSVYLQMDNLKPEDTAMYYCTAGPNCVGWRSGLDYWGQGTQVTVSS
modifications: conjugated to biotin (site not stated)
notes: also called IL10 VHH DR509 biotin; DR509
Kd [3]: 1.9 nM
koff [3]: 0.003 s⁻¹
kon [3]: 1.6e+06 M⁻¹ s⁻¹
Activity [4]: 85%
Kd [5]: 0.2 nM
koff [5]: 0.00013 s⁻¹
kon [5]: 490000 M⁻¹ s⁻¹

Now from value to binder:

Surface Activity [1]: 54%
Kd [2]: 314 nM
koff [2]: 0.0213 s⁻¹
kon [2]: 67800 M⁻¹ s⁻¹
B1: hIL-10Rb_VHH26 Mono-Fc (Fc fusion)
chain: QVQLQESGGGSVQAGGSLRLSCAASGYSYSSYCMGWFRQAPGKEREGVATIDSDGMTRYADSVKGRFTISKDNAKNTLYLQMNSLKPEDTAMYYCAAPLYDCDSGAVGRNPPYWGQGTQVTVSS
notes: as for B2

Kd [3]: 2.7 nM
koff [3]: 0.0018 s⁻¹
kon [3]: 660000 M⁻¹ s⁻¹
Activity [4]: 25%
Kd [5]: 1.1 nM
koff [5]: 0.00027 s⁻¹
kon [5]: 250000 M⁻¹ s⁻¹
B4: hIL10Rb_VHH1-hIL10Ra_VHH9-biotin (bispecific antibody)
chain: QVQLQESGGGSVQAGGSLRLSCAASGYTYSSGCMGWFRQAPGKEREAVAAINSDGSTSYADSVKGRFTISKDNAKNTLYLQMNSLKPEDTAMYYCAAEPYCSGGYPRWSVAEFGYWGQGTQVTVSSGGGSQVQLQESGGGSVQAGGSLRLSCAVSGYAYSTYCMGWFRQAPGKEREGVAAIDSGGSTSYADSVKGRFTISKDNAKNTLYLRMNSLKPEDTAMYYCAAVPPPPDGGSCLFLGPEIKVSKADFRYWGQGTQVTVSS
modifications: conjugated to biotin (site not stated)

Surface Activity [1]: 24%
Kd [2]: 2.4 nM
koff [2]: 0.0254 s⁻¹
kon [2]: 1.07e+07 M⁻¹ s⁻¹
B5: hIL-10Rb_VHH27 Mono-Fc (Fc fusion)
chain: QVQLQESGGGSVQTGGSLRLSCAASGYTYLRGCMGWFRQAPGKEREGVAVMDVVGDRRSYIDSVKGRFTISRDNAANSVYLQMDNLKPEDTAMYYCTAGPNCVGWRSGLDYWGQGTQVTVSS
notes: as for B2
